Among the data in the RNAGym collection of RNA variant scans (doi:10.7554/elife.80360) are self-cleavage values, retold here.

B1: CPEB3 Ribozyme (parent)
chain: GGGGGCCACAGCAGAAGCGUUCACGUCGCGGCCCCUGUCAGAUUCUGGUGAAUCUGCGAAUUCUGCUGU

In this data set the parent is B1. The data set is described as follows: self-cleavage, relative activity (ratio to wild type); higher = more cleavage; co-transcriptional.
Take GAGGGCCACAGCAGAAGCGUUCAGGUCGCGGCCCCUGUCAGAUUCUGGUGAAUCUGCGAAUUCUGCUGU [G2A C24G]: the self-cleavage was found to be 0.0162.
Next, GAGGGCCACAGCAGAAGCGUUCACGUCGCGGCCCCUGUCAGAUUCUGGUGAAUCUGCGACUUCUGCUGU [G2A A60C]: 0.0397.
Then GAGGGCUACAGCAGAAGCGUUCACGUCGCGGCCCCUGUCAGAUUCUGGUGAAUCUGCGAAUUCUGCUGU [G2A C7U], with 0.0501.
Next, GAGGGCAACAGCAGAAGCGUUCACGUCGCGGCCCCUGUCAGAUUCUGGUGAAUCUGCGAAUUCUGCUGU [G2A C7A]: 0.0557.
For the variant GAGGGCCAUAGCAGAAGCGUUCACGUCGCGGCCCCUGUCAGAUUCUGGUGAAUCUGCGAAUUCUGCUGU [G2A C9U], the self-cleavage worked out at 0.493.
Then GAGGGCCAAAGCAGAAGCGUUCACGUCGCGGCCCCUGUCAGAUUCUGGUGAAUCUGCGAAUUCUGCUGU [G2A C9A], with 0.435.
As to GAGGGCCAGAGCAGAAGCGUUCACGUCGCGGCCCCUGUCAGAUUCUGGUGAAUCUGCGAAUUCUGCUGU [G2A C9G], the self-cleavage stood at 0.411.
With GAGGGCCACAGCAGAAGCGUUCACGUCGCGGCCCCUGUCUGAUUCUGGUGAAUCUGCGAAUUCUGCUGU [G2A A40U], the self-cleavage was found to be 0.0585.
Next, GAGGGCCACAGCAGAAGCGUUGACGUCGCGGCCCCUGUCAGAUUCUGGUGAAUCUGCGAAUUCUGCUGU [G2A C22G]: 0.0504.
Then GAGGGCCACAGCAGAAGCGUUUACGUCGCGGCCCCUGUCAGAUUCUGGUGAAUCUGCGAAUUCUGCUGU [G2A C22U], with 0.051; and GAGGGCCACAGCAGAAGCGUUCACGUCGCGGCCCCUGUCAGAUUCUGGUGAAUCUGAGAAUUCUGCUGU [G2A C57A], with 0.0762; and GAGGGCCACAGCAGAAGCGUUCACGUCGCGGCCCCUGUCAGAUUCUGGUGAAUCUGGGAAUUCUGCUGU [G2A C57G], with 0.047.
Then GAGGGCCACAGCAGAAGCGUUCACGUCGCGGCCCCUGUCAGAUUCUGGUGAAUCUGUGAAUUCUGCUGU [G2A C57U], with 0.0401; and GAGGGCCACAGCAGAAGCGUUCACGUCGCGGCCCCUGUCAGAUUGUGGUGAAUCUGCGAAUUCUGCUGU [G2A C45G], with 0.217.
As to UGGGGCCACAGCAGAAGCGUUCACGUCGCGGCCCCUGUCAGAUUCUGGUGAAUCUGCGAAUUCGGCUGU [G1U U64G], the self-cleavage was 0.117.
GAGGGCCACAGCAGAAGCGUUCACGUCGCGGCCUCUGUCAGAUUCUGGUGAAUCUGCGAAUUCUGCUGU [G2A C34U]: the self-cleavage amounted to 0.106.
Consider GAGGGCCACAGCAGAAGCGUUCACGUCGCGGCCACUGUCAGAUUCUGGUGAAUCUGCGAAUUCUGCUGU [G2A C34A], for which the self-cleavage was found to be 0.0453.
In the case of GAGGGCCACAGCAGAAGCGUUCACGUCGCGGCCCCUGUCAGAUUCUGGUGAAUCUGCGAAUUCUGUUGU [G2A C66U], the self-cleavage is 0.236.
Next, GAGGGCCACAGCAGAAGCGUUCACGUCGCGGCCCCUGUCAGAUUCUGGUGAAUCUGCGAAUUCUGAUGU [G2A C66A]: 0.0939; GAGGGCCACAGCAGAAGCGUUCACGUCGCGGCCCCUGUCAGAUUCUGGUGAAUCUGCGAAUUCUGGUGU [G2A C66G]: 0.101.
Then GAGGGCCACAGCAGAAGUGUUCACGUCGCGGCCCCUGUCAGAUUCUGGUGAAUCUGCGAAUUCUGCUGU [G2A C18U], with 0.0628.
For the variant GAGGGCCACAGCAGAAGCGUUCACGUCGCGGCCCCUGUCAGUUUCUGGUGAAUCUGCGAAUUCUGCUGU [G2A A42U], the self-cleavage worked out at 0.0966.
Regarding GAGGGCCACAGCAGAAGCGUUCACGUCGCGGCCCCUGUCAGCUUCUGGUGAAUCUGCGAAUUCUGCUGU [G2A A42C], the self-cleavage was 0.0844.
On to GAGGGCCACAGCAGUAGCGUUCACGUCGCGGCCCCUGUCAGAUUCUGGUGAAUCUGCGAAUUCUGCUGU [G2A A15U], for which the self-cleavage worked out at 0.0881.
Then GAGGGCCACAGCAGCAGCGUUCACGUCGCGGCCCCUGUCAGAUUCUGGUGAAUCUGCGAAUUCUGCUGU [G2A A15C], with 0.0708; and GAGGGGCACAGCAGAAGCGUUCACGUCGCGGCCCCUGUCAGAUUCUGGUGAAUCUGCGAAUUCUGCUGU [G2A C6G], with 0.0574.
Next, GAGGGUCACAGCAGAAGCGUUCACGUCGCGGCCCCUGUCAGAUUCUGGUGAAUCUGCGAAUUCUGCUGU [G2A C6U]: 0.0868; GAGGGACACAGCAGAAGCGUUCACGUCGCGGCCCCUGUCAGAUUCUGGUGAAUCUGCGAAUUCUGCUGU [G2A C6A]: 0.044; GAGGGCCACAGCAGAAGCGUUCACGUAGCGGCCCCUGUCAGAUUCUGGUGAAUCUGCGAAUUCUGCUGU [G2A C27A]: 0.0442.
Next, GAGGGCCACAGCAGAAGCGUUCACGUGGCGGCCCCUGUCAGAUUCUGGUGAAUCUGCGAAUUCUGCUGU [G2A C27G]: 0.0739; GAGGGCCACAGCAGAAGCGUUCACGUUGCGGCCCCUGUCAGAUUCUGGUGAAUCUGCGAAUUCUGCUGU [G2A C27U]: 0.0441.
In the case of GAGGGCCUCAGCAGAAGCGUUCACGUCGCGGCCCCUGUCAGAUUCUGGUGAAUCUGCGAAUUCUGCUGU [G2A A8U], the self-cleavage was determined as 0.199.
With GAGGGCCGCAGCAGAAGCGUUCACGUCGCGGCCCCUGUCAGAUUCUGGUGAAUCUGCGAAUUCUGCUGU [G2A A8G], the self-cleavage worked out at 0.105.
As to GAGGGCCACAGCAGAAGCGUUCACGUCGCGGCCCCUGUCAGAUUCUGGUGAAUUUGCGAAUUCUGCUGU [G2A C54U], the self-cleavage stood at 0.152.
Then GAGGGCCACAGCAGAAGCGUUCACGUCGCGGCCCCUGUCAGAUUCUGGUGAAUAUGCGAAUUCUGCUGU [G2A C54A], with 0.112.
Then GAGGGCCACAGCCGAAGCGUUCACGUCGCGGCCCCUGUCAGAUUCUGGUGAAUCUGCGAAUUCUGCUGU [G2A A13C], with 0.109; and GAGGGCCACAGCGGAAGCGUUCACGUCGCGGCCCCUGUCAGAUUCUGGUGAAUCUGCGAAUUCUGCUGU [G2A A13G], with 0.129.
As to GAGGGCCACAGCAGAAGCGUUCACGUCGCGGCCCCUGUCAGAUUCUGGUGAUUCUGCGAAUUCUGCUGU [G2A A52U], the self-cleavage is 0.12.
As for GAGGGCCACAGCAGAAGCGUUCACGUCGCGGCCCCUGUCAGAUUCUGGUGAGUCUGCGAAUUCUGCUGU [G2A A52G], the self-cleavage is 0.242.
